Measured values from paper PMC8042443, “PKCα-mediated phosphorylation of the diacylglycerol kinase ζ MARCKS domain switches cell migration modes by regulating interactions with Rac1 and RhoA” (The Journal of Biological Chemistry, 2021).

How the values were obtained:
[1] = target: T1, GST fusion protein of inactive RhoA (RhoA^N19) (UniProt P61586 1-193, RhoA^N19); assay: pull-down; GST fusion proteins immobilised on beads, incubated 1 to 2 h at 4 °C with lysates of MEFs expressing HA-tagged DGKζ constructs; washed at least four times with ice-cold lysis buffer; bound DGKζ detected by anti-HA immunoblot; in some panels cells were treated with vehicle, 100 nM PMA, or 1 μM Gö6976 before PMA; settings: one partner purified
T1 construct: cDNA from the Missouri S&T cDNA Resource Center, subcloned into pGEX-4T-3; also called GST-RhoA^N19; GST-RhoN^19; source: recombinant GST fusion (pGEX-4T-3), purified as described previously

[2] = target: T2, GST fusion protein of constitutively active RhoA (RhoA^V14) (UniProt P61586 1-193, RhoA^V14); assay: as above; settings: one partner purified
T2 construct: RhoA, constitutively active V14 mutant; cDNA from the Missouri S&T cDNA Resource Center, subcloned into pGEX-4T-3; also called GST-RhoA^V14; source: recombinant GST fusion (pGEX-4T-3), purified as described previously
T2 sequence (P61586 other isoform, or with tags, fused parts or gaps RhoA^V14 | RhoA^V14): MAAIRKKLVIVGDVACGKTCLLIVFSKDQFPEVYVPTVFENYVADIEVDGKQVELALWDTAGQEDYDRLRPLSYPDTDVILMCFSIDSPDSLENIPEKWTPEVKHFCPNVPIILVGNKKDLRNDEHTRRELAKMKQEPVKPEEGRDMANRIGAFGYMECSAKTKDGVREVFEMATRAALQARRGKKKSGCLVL

T1 sequence (P61586 other isoform, or with tags, fused parts or gaps RhoA^N19 | RhoA^N19): as the sequence (P61586 other isoform, or with tags, fused parts or gaps RhoA^V14 | RhoA^V14) above, with V14G, T19N counted along it

B1: HA-tagged wild-type diacylglycerol kinase ζ (enzyme)
chain: not shown
notes: diacylglycerol kinase ζ (DGKζ), wild type; also called HA-DGKζ; HA-DGKζ^WT; source: MEFs, infected with adenoviral vector or transiently transfected, in lysate
fold change of binding after PMA against vehicle control [1]: ~2 fold
fold change of binding after PMA against vehicle control [2]: ~2 fold
